The values that follow are results of earlier work, collected in publication PMC5337993.

This data set deals with Kv1.3 (Homo sapiens) (UniProt P22001).
Sequence of UniProt P22001 (P22001 whole entry): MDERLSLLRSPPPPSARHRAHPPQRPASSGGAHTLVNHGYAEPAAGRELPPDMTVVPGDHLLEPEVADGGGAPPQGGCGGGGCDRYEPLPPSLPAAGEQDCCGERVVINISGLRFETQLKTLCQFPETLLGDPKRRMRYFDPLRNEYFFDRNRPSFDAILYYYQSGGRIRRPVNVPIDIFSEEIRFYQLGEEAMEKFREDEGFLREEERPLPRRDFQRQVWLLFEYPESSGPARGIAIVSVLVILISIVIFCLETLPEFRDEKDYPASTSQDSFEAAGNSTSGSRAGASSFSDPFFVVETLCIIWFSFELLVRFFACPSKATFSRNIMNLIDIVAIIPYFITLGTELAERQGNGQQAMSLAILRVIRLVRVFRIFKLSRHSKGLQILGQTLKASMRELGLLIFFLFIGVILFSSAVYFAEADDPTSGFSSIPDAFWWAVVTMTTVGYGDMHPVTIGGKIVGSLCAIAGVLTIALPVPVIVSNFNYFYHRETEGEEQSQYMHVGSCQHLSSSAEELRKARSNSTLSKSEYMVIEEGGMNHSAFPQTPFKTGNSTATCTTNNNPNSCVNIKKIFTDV

Turning to ShK (from UniProt P29187), the Kd was 10 pM.
